Data taken from paper PMC11711090.

How the values were obtained:
[1] = target: CPEB4 extracted from the brains of 6-month-old TgCPEB4Δ4 mice (human | mouse (endogenous in brain)) (UniProt Q17RY0); assay: SEC + other: SDD-AGE
[2] = target: nCPEB4(NTD), N-terminal domain of neuronal CPEB4 (with microexon 4) (human) (UniProt Q17RY0); assay: SEC-MALS

Row | aggregated CPEB4 eluting in the void volume, normalized to control mice [1] | stoichiometry N [2] | Substance
1 | 10.8 | – | CPEB4 extracted from the brains of 6-month-old TgCPEB4Δ4 mice (from UniProt Q17RY0 1-729; Q7TN98 1-729) (natural protein)
2 | – | 350 | nCPEB4(NTD), N-terminal domain of neuronal CPEB4 (with microexon 4) (from UniProt Q17RY0-2 1-448) (domain or fragment)
